Values quoted from earlier work, collected in PMC3742252.

Molecular target: TSH (Bos taurus) (UniProt P01217)

thyroid-stimulating hormone receptor (from UniProt Q8SPP9)
Kd: 1 nM
